Measured values reported in patent US20260217793A1 (Chugai, published 2026).
One block for each binder: values may come before it.

Assays:
[1] = target: human IgA (recombinant, variable region from an anti-human IL6R antibody) (human); assay: SPR
[2] = target: T1, FcγRIIb extracellular domain with C-terminal His tag (human, UniProt P31994 43-217); assay: SPR
T1 sequence (looked up): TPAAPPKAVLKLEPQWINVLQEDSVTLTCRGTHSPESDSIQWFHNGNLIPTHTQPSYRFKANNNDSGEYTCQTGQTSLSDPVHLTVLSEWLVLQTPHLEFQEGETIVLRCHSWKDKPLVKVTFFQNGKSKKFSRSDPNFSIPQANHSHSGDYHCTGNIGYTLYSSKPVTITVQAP

[3] = target: T1, FcγRIIb extracellular domain with …; assay: SPR; remark: listed apart in the source
[4] = target: T1, FcγRIIb extracellular domain with …; assay: SPR; remark: listed apart in the source
[5] = target: human FcγRIa extracellular domain with C-terminal His tag (human, UniProt P12314 16-292); assay: SPR
[6] = target: T2, human FcγRIIa type R (Arg131) extracellular domain with C-terminal His tag (human, UniProt P12318 34-217); assay: SPR
T2 sequence (looked up): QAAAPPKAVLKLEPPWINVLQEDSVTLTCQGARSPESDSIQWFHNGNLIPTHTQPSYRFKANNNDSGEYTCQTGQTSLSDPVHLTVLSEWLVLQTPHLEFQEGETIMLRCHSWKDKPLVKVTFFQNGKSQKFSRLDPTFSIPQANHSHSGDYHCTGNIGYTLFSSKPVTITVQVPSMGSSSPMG

[7] = target: T3, human FcγRIIb extracellular domain with C-terminal His tag (human, UniProt P31994 43-217); assay: SPR
T3 sequence (looked up): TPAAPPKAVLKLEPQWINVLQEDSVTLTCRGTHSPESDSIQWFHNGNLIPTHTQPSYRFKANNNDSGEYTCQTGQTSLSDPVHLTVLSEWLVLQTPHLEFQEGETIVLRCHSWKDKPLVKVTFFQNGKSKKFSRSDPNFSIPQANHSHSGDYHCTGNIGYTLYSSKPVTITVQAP

[8] = target: T4, FcγRIIa type H extracellular domain with C-terminal His tag (human, UniProt P12318 34-217); assay: SPR
T4 sequence (looked up): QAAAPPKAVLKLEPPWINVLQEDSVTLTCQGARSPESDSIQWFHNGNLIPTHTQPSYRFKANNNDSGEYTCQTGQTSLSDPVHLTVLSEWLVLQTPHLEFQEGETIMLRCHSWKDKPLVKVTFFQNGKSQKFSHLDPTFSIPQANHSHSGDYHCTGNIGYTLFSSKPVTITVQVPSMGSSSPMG

[9] = target: FcγRIIIa type V extracellular domain with C-terminal His tag (human, UniProt P08637 17-208); assay: SPR
[10] = target: T5, human FcγRIIb extracellular domain with C-terminal His tag (human, UniProt P31994 43-217); assay: ratio of SPR KDs, FcγRIIaR over FcγRIIb
T5 sequence (looked up): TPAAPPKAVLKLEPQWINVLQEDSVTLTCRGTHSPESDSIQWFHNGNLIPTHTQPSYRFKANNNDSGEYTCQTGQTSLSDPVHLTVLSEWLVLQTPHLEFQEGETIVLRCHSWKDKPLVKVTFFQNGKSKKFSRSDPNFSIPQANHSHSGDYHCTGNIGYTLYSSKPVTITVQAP

[11] = target: T6, human FcγRIIa type R (131Arg) extracellular domain with C-terminal His tag (human, UniProt P12318 34-217); assay: ratio of SPR KDs, reference IL6R-B3/IL6R-L
T6 sequence (looked up): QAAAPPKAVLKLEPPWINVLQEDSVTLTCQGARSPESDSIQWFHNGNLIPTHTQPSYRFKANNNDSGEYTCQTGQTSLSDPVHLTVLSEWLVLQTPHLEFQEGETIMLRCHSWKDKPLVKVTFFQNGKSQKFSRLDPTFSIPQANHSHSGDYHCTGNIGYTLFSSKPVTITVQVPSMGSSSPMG

[12] = target: T5, human FcγRIIb extracellular domain with …; assay: ratio of SPR KDs, reference IL6R-B3/IL6R-L
[13] = target: T7, human FcγRIIa type R (human, UniProt P12318 34-217); assay: ratio of SPR KD values
T7 sequence (looked up): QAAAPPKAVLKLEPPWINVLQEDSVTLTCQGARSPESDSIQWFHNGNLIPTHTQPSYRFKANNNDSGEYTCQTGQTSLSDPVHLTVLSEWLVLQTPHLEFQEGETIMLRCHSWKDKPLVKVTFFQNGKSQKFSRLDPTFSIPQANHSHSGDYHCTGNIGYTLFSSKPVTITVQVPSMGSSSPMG

[14] = target: T8, human FcγRIIb (human, UniProt P31994 43-217); assay: ratio of SPR KD values
T8 sequence (looked up): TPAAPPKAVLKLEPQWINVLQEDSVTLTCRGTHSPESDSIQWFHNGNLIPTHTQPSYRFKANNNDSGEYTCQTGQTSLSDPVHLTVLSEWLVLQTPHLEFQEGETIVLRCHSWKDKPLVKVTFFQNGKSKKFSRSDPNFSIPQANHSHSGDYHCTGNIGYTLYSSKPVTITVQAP

[15] = target: T9, mouse FcγRIIb (mouse, UniProt P08101 30-210); assay: SPR
T9 sequence (looked up): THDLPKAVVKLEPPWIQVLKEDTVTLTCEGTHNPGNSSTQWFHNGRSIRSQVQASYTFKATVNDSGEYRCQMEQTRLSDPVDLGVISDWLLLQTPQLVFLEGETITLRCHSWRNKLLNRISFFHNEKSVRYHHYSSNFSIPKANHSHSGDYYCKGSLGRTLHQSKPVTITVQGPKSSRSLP

[16] = target: T10, mouse FcγRIII (mouse, UniProt P08508 31-215); assay: SPR
T10 sequence (looked up): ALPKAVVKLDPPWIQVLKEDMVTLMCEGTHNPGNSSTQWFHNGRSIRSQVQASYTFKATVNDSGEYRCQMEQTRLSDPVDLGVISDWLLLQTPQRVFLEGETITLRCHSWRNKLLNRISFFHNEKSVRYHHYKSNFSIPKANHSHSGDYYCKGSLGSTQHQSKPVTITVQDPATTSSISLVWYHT

[17] = target: T9, mouse FcγRIIb; assay: SPR; remark: listed apart in the source
[18] = target: T10, mouse FcγRIII; assay: SPR; remark: listed apart in the source

FcγRIIIa type V extracellular domain with C-terminal His tag, sequence (P08637 17-208 F176V): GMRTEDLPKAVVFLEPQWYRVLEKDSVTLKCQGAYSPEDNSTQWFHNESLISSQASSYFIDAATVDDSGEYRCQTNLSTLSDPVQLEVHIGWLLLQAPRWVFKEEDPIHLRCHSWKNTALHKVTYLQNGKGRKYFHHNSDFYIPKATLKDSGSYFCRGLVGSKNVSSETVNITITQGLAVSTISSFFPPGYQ
human FcγRIa extracellular domain with C-terminal His tag, sequence (P12314 16-292): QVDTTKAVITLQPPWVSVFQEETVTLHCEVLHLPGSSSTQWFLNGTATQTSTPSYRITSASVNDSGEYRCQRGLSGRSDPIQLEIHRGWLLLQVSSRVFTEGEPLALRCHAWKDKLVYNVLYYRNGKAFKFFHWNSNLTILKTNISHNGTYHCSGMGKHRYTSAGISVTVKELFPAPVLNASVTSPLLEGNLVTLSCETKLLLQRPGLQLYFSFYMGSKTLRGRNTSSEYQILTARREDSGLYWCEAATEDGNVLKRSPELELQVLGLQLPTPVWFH

B1: GA2-IgG1 (antibody, V domains shown)
VH: QVQLVQSGAEVKKPGSSVKVSCKASGGTFSSYAISWVRQAPGQGLEWMGGIIPIFGTANYAQKFQGRVTITADESTSTAYMELSSLRSEDTAVYYCARPRWETAISSDAFDIWGQGTMVTVSS
VL: DIQMTQSPSSLSASVGDRVTITCRASQSISDDLNWYQQKPGKAPKLLIYEASNLQSGVPSRFSGSGSGTDFTLTISSLQPEDFATYYCQQHSSSPLTFGQGTKVEIKR
- kon [1]: 400000 M⁻¹ s⁻¹

B2: IL6R-BP198/IL6R-L (antibody, human IgG1, kappa)
heavy: QVQLQESGPGLVKPSETLSLTCAVSGHSISHDHAWSWVRQPPGEGLEWIGFISYSGITNYNPSLQGRVTISRDNSKNTLYLQMNSLRAEDTAVYYCARSLARTTAMDYWGEGTLVTVSSASTKGPSVFPLAPSSKSTSGGTAALGCLVKDYFPEPVTVSWNSGALTSGVHTFPAVLQSSGLYSLSSVVTVPSSSLGTQTYICNVNHKPSNTKVDKKVEPKSCDKTHTCPPCPAPDYLGGDSVFLFPPKPKDTLMISRTPEVTCVVVDVSDEDGEVKFNWYVDGVEVHNAKTKPREEQYNSTYRVVSVLTVLHQDWLNGKEYKCKVSNAALPKPIEKTISKAKGQPREPQVYTLPPSRDELTKNQVSLTCLVKGFYPSDIAVEWESNGQPENNYKTTPPVLDSDGSFFLYSKLTVDKSRWQQGNVFSCSVMHEALHNHYTQESLSLSP
light: not shown
- KD (IIb) of parent polypeptide/KD (IIb) of altered polypeptide [2]: 15.7 ratio
- KD (IIaH)/KD (IIb) [3]: 102 ratio
- KD (IIaR)/KD (IIb) [4]: 11 ratio

B3: IL6R-BP500/IL6R-L (antibody, human IgG1, kappa)
heavy: QVQLQESGPGLVKPSETLSLTCAVSGHSISHDHAWSWVRQPPGEGLEWIGFISYSGITNYNPSLQGRVTISRDNSKNTLYLQMNSLRAEDTAVYYCARSLARTTAMDYWGEGTLVTVSSASTKGPSVFPLAPSSKSTSGGTAALGCLVKDYFPEPVTVSWNSGALTSGVHTFPAVLQSSGLYSLSSVVTVPSSSLGTQTYICNVNHKPSNTKVDKKVEPKSCDKTHTCPPCPAPELLGDDSVFLFPPKPKDTLMISRTPEVTCVVIDVAEEDGEVKFNWYVDGVEVHNAKTKPREEQDNSTYRVVSVLTVLHQDWLNGKEYKCKVSNKALPAPIEKTISKAKGQPREPQVYTLPPSRDELTKNQVSLTCLVKGFYPSDIAVEWESNGQPENNYKTTPPVLDSDGSFFLYSKLTVDKSRWQQGNVFSCSVMHEALHNHYTQESLSLSP
light: not shown
- binding result [5]: binds
- KD (IIaR) of parent polypeptide/KD (IIaR) of altered polypeptide [6]: 1.5
- KD (IIb) of parent polypeptide/KD (IIb) of altered polypeptide [7]: 128

B4: IL6R-BP245/IL6R-L (antibody, human IgG1, kappa)
heavy: QVQLQESGPGLVKPSETLSLTCAVSGHSISHDHAWSWVRQPPGEGLEWIGFISYSGITNYNPSLQGRVTISRDNSKNTLYLQMNSLRAEDTAVYYCARSLARTTAMDYWGEGTLVTVSSASTKGPSVFPLAPSSKSTSGGTAALGCLVKDYFPEPVTVSWNSGALTSGVHTFPAVLQSSGLYSLSSVVTVPSSSLGTQTYICNVNHKPSNTKVDKKVEPKSCDKTHTCPPCPAPDLLGDDSVFLFPPKPKDTLMISRTPEVTCVVVDVQDEDGEVKFNWYVDGVEVHNAKTKPREEQDNSTYRVVSVLTVLHQDWLNGKEYKCKVSNDALPRPIEKTISKAKGQPREPQVYTLPPSRDELTKNQVSLTCLVKGFYPSDIAVEWESNGQPENNYKTTPPVLDSDGSFFLYSKLTVDKSRWQQGNVFSCSVMHEALHNHYTQESLSLSP
light: not shown
- Kd [8]: 23 µM

B7: IL6R-BP478/IL6R-L (antibody)
heavy: QVQLQESGPGLVKPSETLSLTCAVSGHSISHDHAWSWVRQPPGEGLEWIGFISYSGITNYNPSLQGRVTISRDNSKNTLYLQMNSLRAEDTAVYYCARSLARTTAMDYWGEGTLVTVSSASTKGPSVFPLAPCSRSTSESTAALGCLVKDYFPEPVTVSWNSGALTSGVHTFPAVLQSSGLYSLSSVVTVPSSSLGTKTYTCNVDHKPSNTKVDKRVESKYGPPCPPCPAPDLLGDDSVFLFPPKPKDTLMISRTPEVTCVVVDVSDEDGEVKFNWYVDGVEVHNAKTKPREEQDNSTYRVVSVLTVLHQDWLNGKEYKCKVSNKALPRPIEKTISKAKGQPREPQVYTLPPSRDELTKNQVSLTCLVKGFYPSDIAVEWESNGQPENNYKTTPPVLDSDGSFFLYSKLTVDKSRWQQGNVFSCSVMHEALHNHYTQESLSLSP
light: not shown
- binding relative to IL6R-BP230/IL6R-L [13]: 0.9 fold
- binding relative to IL6R-BP230/IL6R-L [14]: 1.1 fold

Now from value to binder:

- Kd [9]: 4400 µM
B5: IL6R-BP248/IL6R-L (antibody, human IgG1, kappa)
heavy: QVQLQESGPGLVKPSETLSLTCAVSGHSISHDHAWSWVRQPPGEGLEWIGFISYSGITNYNPSLQGRVTISRDNSKNTLYLQMNSLRAEDTAVYYCARSLARTTAMDYWGEGTLVTVSSASTKGPSVFPLAPSSKSTSGGTAALGCLVKDYFPEPVTVSWNSGALTSGVHTFPAVLQSSGLYSLSSVVTVPSSSLGTQTYICNVNHKPSNTKVDKKVEPKSCDKTHTCPPCPAPDLLGDDSVFLFPPKPKDTLMISRTPEVTCVVVDVSDEDGEVKFNWYVDGVEVHNAKTKPREEQDNSTYRVVSVLTVLHQDWLNGKEYKCKVSNAALPRPIEKTISKAKGQPREPQVYTLPPSRDELTKNQVSLTCLVKGFYPSDIAVEWESNGQPENNYKTTPPVLDSDGSFFLYSKLTVDKSRWQQGNVFSCSVMHEALHNHYTQESLSLSP
light: not shown

- KD (IIaR)/KD (IIb) [10]: 28
- KD (IIaR) of parent polypeptide/KD (IIaR) of altered polypeptide [11]: 2
- KD (IIb) of parent polypeptide/KD (IIb) of altered polypeptide [12]: 161
B6: IL6R-BP478/IL6R-L (antibody)
heavy: QVQLQESGPGLVKPSETLSLTCAVSGHSISHDHAWSWVRQPPGEGLEWIGFISYSGITNYNPSLQGRVTISRDNSKNTLYLQMNSLRAEDTAVYYCARSLARTTAMDYWGEGTLVTVSSASTKGPSVFPLAPCSRSTSESTAALGCLVKDYFPEPVTVSWNSGALTSGVHTFPAVLQSSGLYSLSSVVTVPSSSLGTKTYTCNVDHKPSNTKVDKRVESKYGPPCPPCPAPDLLGDDSVFLFPPKPKDTLMISRTPEVTCVVVDVSDEDGEVKFNWYVDGVEVHNAKTKPREEQDNSTYRVVSVLTVLHQDWLNGKEYKCKVSNKALPRPIEKTISKAKGQPREPQVYTLPPSRDELTKNQVSLTCLVKGFYPSDIAVEWESNGQPENNYKTTPPVLDSDGSFFLYSKLTVDKSRWQQGNVFSCSVMHEALHNHYTQESLSLSP
light: not shown

- binding ratio compared to mIgG1 [15]: 159
- binding ratio compared to mIgG1 [16]: 6.2
- Kd [17]: 0.00132 µM
- Kd [18]: 0.0454 µM
B8: VH3/L(WT)-mIgG1-MB367 (antibody)
heavy: QVQLQESGPGLVKPSETLSLTCAVSGHSISHDHAWSWVRQPPGEGLEWIGFISYSGITNYNPSLQGRVTISRDNSKNTLYLQMNSLRAEDTAVYYCARSLARTTAMDYWGEGTLVTVSSAKTTPPSVYPLAPGSAAQTNSMVTLGCLVKGYFPEPVTVTWNSGSLSSGVHTFPAVLQSDLYTLSSSVTVPSSTWPSETVTCNVAHPASSTKVDKKIVPRDCGCKPCICEANEVEDVFIFPPKPKDVLTITLTPKVTCVVVDISKDDPEVQFSWFVDDVEVHTAQTQPREEQFNSTFRSVSELPIMHQDWLNGKEFKCRVNSAAFPAPIEKTISKTKGRPKAPQVYTIPPPKEQMAKDKVSLTCMITDFFPEDITVEWQWNGQPAENYKNTQPIMDTDGSYFVYSKLNVQKSNWEAGNTFTCSVLHEGLHNHHT
light: not shown
